From the DeepSol protein solubility set

Assay: soluble on expression in E. coli; label from the status in PepcDB or PDB records

Sequence | soluble on expression in E. coli
MGSDKIHHHHHHMTPRANALPTDAGELYYSYARPADGALPSLSRQKGLLGIITFQTGFVGEGDGAKPEGILQIPLSGRGDDLCELWKTTQPVLAGTFGDITYRCSRDFLFGSIALAVADLPAGNHGLIHPPLQNAAELAYQQIFSLLDRHGYPGLLRIWNFVPDINGVSHGLEHYRQFNIGRQDAFLAHNRLPSRQNIPAASALGSVDGPLVVYFLAARRNSVAVENPRQISAYHYPQEYGPSSPTFSRAGWVDLGQQKILFISGTASIIGHQTRHGGNVAAQARESMANIAAVVAETNRVAAGSPYDLNDLSYKVYLRQFTDLPIVRAELDRLVTPKAPIFYLQADICRADLLVEIEATAGVLHGGMA | not soluble
MGSDKIHHHHHHMTPTADIWFKDTLAAHFTRDGDQTTFSYTADYAGPPIATSLPINSEPVITRSGAIPPFFAGLLPEGRRLSSLRRNIKASADDELSLLLAVGADPVGAVAIFPHGENPQPAPPTVDFDDELDFSAALTESGIADPVALAGVQDKASARTIAVPVASDAILKLSPPEYPYLVENEAACYQLLTKNKLRIELSKVEVLHDKHGRSGLLVHRFDRTPKGKIPVEDAGQVLGIWPADKYLVSYEDIAQALTKVCASPILAMRNLAFQIAVAWLSGNGDLHAKNISIINKGRGFEISPIYDIPATAVYGDTTMALEIQGSKKDLSQKKFLKFCTSIGLPEKTAMSVANAALLATENAAETILASGNFDTRMNRDLARVLKHRRSAWGA | not soluble
MGSDKIHHHHHHMTPVLSLDMEDPIRFIDENGSFEVVKVGHNLAIHGKKIFDELAKRNLKIILDLKFCDIPSTVERSIKSWDHPAIIGFTVHSCAGYESVERALSATDKHVFVVVKLTSMEGSLEDYMDRIEKLNKLGCDFVLPGPWAKALREKIKGKILVPGIRMEVKADDQKDVVTLEEMKGIANFAVLGREIYLSENPREKIKRIKEMRL | soluble
MGSDKIHHHHHHMTQTSSLVINSFREITVNHPLWSHEFLIRCRAGNLFLPDVQILAVQMYKFSKEFNRILASILSCCEDESSQLVILENLFDEMGQGDITQSHPELFRQFTRALGIDDETLAALPTAPETRALIETYLQIPHKYGYLAALGAVCYASEGIVSSLYTQLYKGIIGATPLPKEALIFFEVHIDVDDSHAAKLAAVIEPRIPMNEEDIKVKLAIVEAMDARVQFFNGIQRQISKYSLYPDSWVHFDALL | not soluble
MGSDKIHHHHHHMTQTTPQPDPSRLRDELVRLHGKASPEWDSLVRLDPRFVDAYLKFAGVPQRRNHLDDKTRAFIALAADACATQLYAPGVARHIERALSFGATREELIEVLELVSTIGIHTSNVGVPVLLEVLEEEGLRKGAPPLDERRQKLKAEFETNRGYWHPTWEGLLELDPDLFEAYVEFSSVPWRTGVLSPKIKEFMYCAFDASATHLYVPGLKLHIRNALRYGATAEELMELLEIVSVTGIHGAELGAPLLEAALKRSGAAAGEPHA | not soluble
MGSDKIHHHHHHMTQVHFTLKSEEIQSIIEYSVKDDVSKNILTTVFNQLMENQRTEYIQAKEYERTENRQSQRNGYYERSFTTRVGTLELKVPRTRDGHFSPTVFERYQRNEKALMASMLEMYVSGVSTRKVSKIVEELCGKSVSKSFVSSLTEQLEPMVNEWQNRLLSEKNYPYLMTDVLYIKVREENRVLSKSCHIAIGITKDGDREIIGFMIQSGESEETWTTFFEYLKERGLQGTELVISDAHKGLVSAIRKSFTNVSWQRCQVHFLRNIFTTIPKKNSKSFREAVKGIFKFTDINLAREAKNRLIHDYIDQPKYSKACASLDDGFEDAFQYTVQGNSHNRLKSTNLIERLNQEVRRREKIIRIFPNQTSANRLIGAVLMDLHDEWIYSSRKYINFDK | not soluble
MGSDKIHHHHHHMTRGIALFFWNRKKATKKISPEPEAAQEVWQRKKYRTNYYTYNSAKERGSLRSKKQRKHEIGEYKLEVGLAHLPRCFRRLSNLLLGTKGRFHQIDHVLISPYGIFLLEANNLSGLIVGEETESKWYQAITWRVKTFPNPIMENQVRVQMLQELAGLDQTIPVFSYVTFNRSCSLKVFSGMVFYDIDLPASIMQLAQNQPAVLSDEEILELVERIEKINLTDLGLRNEYAARQRRERMQYRPKYGDIRCSICQKAVNERMARYCLNRPEKFAWKIYCEKHQREMTRVVRREGGREGHGPYPESTDSKKESMD | not soluble
MGSDKIHHHHHHMTRSGIGIRTAQQQSGRLTGQIHVYDGAGKGKSQAALGVVLRSIGLGIRDQWQSRVLLLRFLKGPGRTYDEDAAIEALQQGFPHLIDQVRTGRAEFFGPDAISRFDRQEARRGWDIAKGAIVSGLYSVIVLDELNPILDLGLLPVDEVVQTLRQKPPQVEVIATGRGAPPQLLEIADLHSEMIAHANPAVAPVGMEGIEIYTGEGKGKSTSALGKALQAIGRGIGQDLSHRVLILQWLKGGSGYTEDAAIQALRQSYPHLVDHQRSGRDAIVWRGQQQEIDYIEAERAWEIARAAIASGLYKTIILDELNPTVDLELLPEEPILQALLRKPRDTEVIITGRCKQIPAYFHLASVHSEMVCHKHYAERGIELKRGVDY | not soluble
MGSDKIHHHHHHMTRVEELLSQIKNLKTEKNAIILGHNYMEYSVQLVSDFTGDSYDLAVKAMKTNAKIILFAGVYFMAEQASALNPNKKVLSPDPNAGCTLSDSLDVKTLQEYKEKYPNAPVVLYINTSIYAKALADYIVTSSTAVKVVQKLNADTILFGPDANLANYVQQKVPNKKIIKVPPNGRCIVHANYTKQLVELARKKYPNALLMAHPEAPLEILESADFVGSTNQMIQFSKENKNEEFIVATEIGMINALKIKNPSKKFYPLVTTEACACARCPYMNMINLEKVKRSLEEEVYEVKVPEDIAERVKRAFENTMKLL | not soluble
MGSDKIHHHHHHMTSQLNELVEFLHSPQPAVRQIAIDNLVGFSAGPTSKVFKNDSYRPIKDIIKMIMDPEHGTRVIIQQGVTILVNLSEDKLVRNIILSDDKKFLKFLVWKIVDLTNPNADIMCILLSNLAKDDGILAVLNIKRNSSGEEVDDGLKLAALNKEVFKSLRAMDCLMDCFVKGYDKKLTKYASFNYLAFFFADISRFKLGRMYFIEEQEYDGVVPISKLLVFTEKYDAKVRREGVASTIKNSLFDSETHERLLKDEKINLLPYILLPIASAKDSEIDEEDMFNLPDELQLLPEDKERDPIPAIICCHLESILLLCTTHAGREYLRDKSVYPLVRELHKNVENEDIGELCYRIVNMLMRGEPGAGAVEEMPSKNAEEEEEEESEEEEDDDEEDEIVEVA | not soluble
MGSDKIHHHHHHMTTKLDQLTSWLKERKITEVECLISDLTGIARGKISPTNKFIAEKGMRLPESVLLQTVTGDYVEDDIYYDLLDPADIDMVCRPDENAVFLVPWAIEPTAMVIHDTFDKLGNPIELSPRNILKRVLKMYADKGWRPIVAPEMEFYLTKRSDDPDYPLQAPVGRSGRQETGRQSFSIDAANEFDPLFEDMYDWCEAQGLDLDTLIHEEGTAQMEINFRHGDALDLADQILVFKRTMREAALKHNVAATFMAKPMTGEPGSAMHLHQSIVDVKTGKNIFSNADGTMSELFLHHIGGLQKFIPEVLPLFAPNVNSFRRFLPDTSAPVNVEWGEENRTVGLRVPDSSPENRRVENRLAGADANPYLALAASLLCGYIGMVEGIKPSAQVKGRGYERRNLRLPLTIEAALERMENCKPLEQYLGSKFISGYVAVKRAEHENFKRVISSWEREFLLLSV | not soluble
MGSDKIHHHHHHMTTLGVVYDKFLSPYFAGGGAVHAYEVTIRLKEHFKIVYYPSSPVLSWDKENVEKKAKELESQGIKVADEFYEILEEKRRIGRLKRFLFADKIAREFSKGFKVDADILYEPDHTSLDIFYLARDTKYGVTFHEPPFYNNSLRYFRRLVKFYGVNPYTGKGFHTRFLYNEYIKYLYKRLFKKVKKPTFLAGVSEAPLLESGLGGEVIKPGNAFNPSLLKFRNRGKEDYVVFWSRLNQDKGFHELPDILRIMEKRGGNKVRLILMGKFFDKYNERRFWSKVRKYDLRVDYKGFVKREELADIVSKAKVLIYPSHVDGFSLVALESLALGTPVVAYDIPAIKSVYGGLECVRIVNEFDKESMAENALKFYKMSEKEIEEIMNGDKLMEFLKLHSNWDNVANSVLKILKKYLI | not soluble
MGSDKIHHHHHHMTTTPLPTFSDDQAQAHDRIAEVLRDMGVDIDDDTLVPAKDTKSAVLAVTGKAGSGKTLLLAELVKALERTGVEIVSGDWEGKRRKDRRTVAVLAPTNKAASVLRNRGVPATTIHRILYTPMYDPEFEKVAEWLAGQGERPSIEALTDAAMDRAKEVYETTKSVPAALASAGLRGSDFITGWKRREDGLDIGLVDESSMLDDKQFQDLKEIFPTLVLFGDPAQLAPVGQSGEMIFDRFKGDNLLHLGRVHRQDADNPILDLAHALGDPQLEFRDFEQMIEDAAARDDRVVVSPRANSDMMARSPVLVWRNATRIRLIAAFRAAFGAGDDEILPGEPLICDGIELPLKHRKKRIDLEARGLIKGAPVVYLGPGNKPGFSRLHVMGAETPRFSAASIVKIEKPGEEEPFLPYAARMGAAFLHGAAVTMHKAQGSQWPEVQVFSPDLYAASRAGRMEAGQALWKRLAYVAITRAEERLFWVTRYMLSRPVHDLSTDDLTVKAAPLELEAEEDADTSTM | not soluble
MGSDKIHHHHHHMTVMNAYQELESQGLIYSKEKSGYFVAEQIALKPLEQYSIVSLNSKIEINSLVFKYLKSIQHESVVPFGSAFPDSQLLAAPKLIQIMGQLARQRQSYDQTASLPPGNLALRKLIAQRYCMQGIQTDPDDIVITSGGLDALNLSLQAVAKPGDYILLQQTVFYGAWQAAERLGLKVITIPEHPQHGFDLEAFEQVIHTYPIKVCWLMLNSHNPIGFTVSDEIKYKIAKLLHEHQIYLIEDDVYEELYYGGQKPLSMKYFDQQNLVLHCSSFSKTLGAGFRVGWVYAGKFSDHIQHLQLMSTISVNALIQNALVEFLSHHHYEKHLRTLRLSLERYKKQFYHYLKQHLPAICEIYYYPSGYFLWVKLPHKLDSMQIYEELIQQDIGVAPSPLFSVLPAQQHYLRINCSFEWNEKIQAALDQVIKTIQQRVEASL | not soluble
MGSDKIHHHHHHMTVQRREKGSSITRVLEIIEAISRAERPMSPAELAFLLDIPKPSIHRLLQQLEADNYVQINMRGLLVPGDRMHSIALGVLHSSRFKALRQAILKKLAETIGETCGIAIPDGIEMIYYDRVQTNWPLRVNLPVGSHTPVACTASGKLYLSSLPKERRHRIIGKLSLEKLARNTLIESESLEKELINIQANELGTDNEEFIDGMVACSVPIKDQDGKLFACLFTHAPVIRKSLDELLAFEPALRHAAIELGDLLKEQ | not soluble
MGSDKIHHHHHHMTVRTRVTDLLEIEHPILMGGMAWAGTPTLAAAVSEAGGLGIIGSGAMKPDDLRKAISELRQKTDKPFGVNIILVSPWADDLVKVCIEEKVPVVTFGAGNPTKYIRELKENGTKVIPVVASDSLARMVERAGADAVIAEGMESGGHIGEVTTFVLVNKVSRSVNIPVIAAGGIADGRGMAAAFALGAEAVQMGTRFVASVESDVHPVYKEKIVKASIRDTVVTGAKLGHPARVLRTPFARKIQEMEFENPMQAEEMLVGSLRRAVVEGDLERGSFMVGQSAGLIDEIKPVKQIIEDILKEFKETVEKLRGYIEE | soluble
MGSDKIHHHHHHMTWRIVHIHQSEKMRLKLDNLVIKKQGDEFTIPLSDISIIVAEGGDTVVTLRLLSALSKYNIALIVCDNHHLPTGIYHSQNGHFRAYKKLQAQLSWAPLQKDKLWQIIIYFKITNQQDVLAMQEKSLSTIQLLSDYREHIELGDRTNREGHAAKVYFNELFGKQFVRLTQQETDAVNAGLNYGYTIFRAQMARIIAGYGLNALIGIFHKNEYNQFNLADDLMEPFRQIVDVWVYMNLREADFLTYQHRLELTNLLNAKIRYGKENCSVTVAMDKFVKGFIRCIEDKDTNQFFCPVVSSLEMEKL | not soluble
